Our source for the activity (relative to I-SceI) values is US20140370558.

What all share (experiment): cell_activity
In data set [1] the test system is FAD2_T02_Left_C11 TALEN monomer (synthetic (TAL effector-nuclease fusion)?). The settings on record: yeast reporter; value of pair with T01_Right_C11 on Target 2.
The subject of data set [2] is FAD2_T02_Left_C40 TALEN monomer (synthetic (TAL effector-nuclease fusion)?). The settings on record: yeast reporter; value of pair with T01_Right_C40 on Target 2.
Data set [3] has as its system FAD2_T01_Left_C40 + FAD2_T01_Right_C40 TALEN pair. The settings on record: yeast reporter cleavage.
Data set [4] relates to FAD2_T02_Left_C40 + FAD2_T01_Right_C40 TALEN pair. The settings on record: yeast reporter cleavage.
Data set [5] deals with FAD2_T02_Left_C11 + FAD2_T01_Right_C11 TALEN pair. The settings on record: yeast reporter cleavage.
For data set [6], the system named is FAD2_T04_Left_C11 + FAD2_T03_Right_C11 TALEN pair. The settings on record: yeast reporter cleavage.
For data set [7], the system named is FAD2_T03_Left_C11 + FAD2_T03_Right_C11 TALEN pair. The settings on record: yeast reporter cleavage.
For data set [8], the system named is FAD2_T03_Left_C40 + FAD2_T03_Right_C40 TALEN pair. The settings on record: yeast reporter cleavage.
The subject of data set [9] is FAD2_T04_Left_C40 + FAD2_T03_Right_C40 TALEN pair. The settings on record: yeast reporter cleavage.
Data set [10] deals with FAD2_T01_Left_C11 + FAD2_T01_Right_C11 TALEN pair. The settings on record: yeast reporter cleavage.
Data set [11] has as its system FAD2_T03_Right_C40 TALEN monomer (synthetic (TAL effector-nuclease fusion)?). The settings on record: yeast reporter; value of pair with T03_Left_C40 on Target 3.
The subject of data set [12] is FAD2_T03_Right_C11 TALEN monomer (synthetic (TAL effector-nuclease fusion)?). The settings on record: yeast reporter; value of pair with T03_Left_C11 on Target 3.
Data set [13] concerns FAD2_T01_Right_C11 TALEN monomer (synthetic (TAL effector-nuclease fusion)?). The settings on record: yeast reporter; value of pair with T01_Left_C11 on Target 1.
In data set [14] the test system is FAD2_T01_Right_C40 TALEN monomer (synthetic (TAL effector-nuclease fusion)?). The settings on record: yeast reporter; value of pair with T01_Left_C40 on Target 1.
In data set [15] the test system is FAD2_T04_Left_C40 TALEN monomer (synthetic (TAL effector-nuclease fusion)?). The settings on record: yeast reporter; value of pair with T03_Right_C40 on Target 4.
Data set [16] deals with FAD2_T04_Left_C11 TALEN monomer (synthetic (TAL effector-nuclease fusion)?). The settings on record: yeast reporter; value of pair with T03_Right_C11 on Target 4.
Data set [17] concerns FAD2_T03_Left_C40 TALEN monomer (synthetic (TAL effector-nuclease fusion)?). The settings on record: yeast reporter; value of pair with T03_Right_C40 on Target 3.
For data set [18], the system named is FAD2_T03_Left_C11 TALEN monomer (synthetic (TAL effector-nuclease fusion)?). The settings on record: yeast reporter; value of pair with T03_Right_C11 on Target 3.
Data set [19] has as its system FAD2_T01_Left_C40 TALEN monomer (synthetic (TAL effector-nuclease fusion)?). The settings on record: yeast reporter; value of pair with T01_Right_C40 on Target 1.
For data set [20], the system named is FAD2_T01_Left_C11 TALEN monomer (synthetic (TAL effector-nuclease fusion)?). The settings on record: yeast reporter; value of pair with T01_Right_C11 on Target 1.
Setting [21] is: left site truncated in Target 3.
The mark [22] stands for this setting: left site truncated in Target 1.

As for “ACATTGCCACCACCTACTTCCACCT (double strand) [FAD2_T02 left half-site]”, the activity (relative to I-SceI) came to 0.97 in [1] and 0.96 in data set [2].

Regarding “ACATTGCCACCACCTACTTCCACCTCCTTCCTCAACCCTTTTCCCTCATTGCATGGCCAATCT (double strand) [FAD2 Target 2]”, the activity (relative to I-SceI) in [3] was 0.73; in data set [4], 0.96; in data set [5], 0.97; in data set [6] it was 0; in data set [7] it was 0; in [8] it was 0. Also, the activity (relative to I-SceI) amounted to 0 in data set [9] and 0.87 in data set [10].

As to “ACCGTGATGAAGTGTTTGTCCC (double strand) [FAD2_T03/T04 right half-site]”, the activity (relative to I-SceI) in [11] amounted to 0.63; in data set [12], 0.65.

Regarding “ATTGCATGGCCAATCT (double strand) [FAD2_T01/T02 right half-site]”, the activity (relative to I-SceI) in data set [13] was determined as 0.73; in data set [14], 0.79.

On to “ATTTCTCATGGAAAATAAGCCAT (double strand) [FAD2_T04 left half-site]”, for which the activity (relative to I-SceI) stood at 0.52 in data set [15] and 0.54 in data set [16].

On to “ATTTCTCATGGAAAATAAGCCATCGCCGCCATCACTCCAACACAGGTTCCCTTGACCGTGATGAAGTGTTTGTCCC (double strand) [FAD2 Target 4]”, for which the activity (relative to I-SceI) in data set [3] was 0; in [4] it was 0; in data set [5] it was 0; in [6], 0.54; in [7], 0.53; in data set [8], 0.51. Moreover, the figures for the activity (relative to I-SceI) in data set [9] and in [10] were 0.52 and 0, respectively.

Take “CTCATGGAAAATAAGCCAT (double strand) [FAD2_T03 left half-site]”: the results for the activity (relative to I-SceI) in [17] and in data set [18] were 0.63 and 0.65, respectively.

Consider “CTCATGGAAAATAAGCCATCGCCGCCATCACTCCAACACAGGTTCCCTTGACCGTGATGAAGTGTTTGTCCC (double strand) [FAD2 Target 3]”, for which the activity (relative to I-SceI) in data set [3] amounted to 0; in data set [4] it was 0; in [5] it was 0; in data set [6] (setting [21]), 0; in [7], 0.65; in data set [8], 0.63. For the same sequence, the activity (relative to I-SceI) in data set [9] (setting [21]) and in [10] was 0 in each case.

“GCCACCACCTACTTCCACCTCCT (double strand) [FAD2_T01 left half-site]”: the values for the activity (relative to I-SceI) in data set [19] and in data set [20] were 0.79 and 0.73, respectively.

As to “GCCACCACCTACTTCCACCTCCTTCCTCAACCCTTTTCCCTCATTGCATGGCCAATCT (double strand) [FAD2 Target 1]”, the activity (relative to I-SceI) in data set [3] amounted to 0.79; in data set [4] (setting [22]), 0; in [5] (setting [22]), 0; in data set [6], 0; in data set [7] it was 0; in data set [8], 0. Also, the values for the activity (relative to I-SceI) in data set [9] and in [10] were 0 and 0.73, respectively.
